{"source": "paper PMC10696041", "about": "(2023)", "binders": {"B1": {"name": "CUB2NTR region of PCPE-2 (domain or fragment)", "chain": "CGGLLDRPSGSFKTPNWPDRDYPAGVTCVWHIVAPKNQLIELKFEKFDVERDNYCRYDYVAVFNGGEVNDARRIGKYCGDSPPAPIVSERNELLIQFLSDLSLTADGFIGHYIFRPKKLPTTTEQPVTTTFPVTTGLKPTVALCQQKCRRTGTLEGNYCSSDFVLAGTVITTITRDGSLHATVSIINIYKEGNLAIQQAGKNMSARLTVVCKQCPLLRRGLNYIIMGQVGEDGRGKIMPNSFIMMFKTKNQKLLDALKNKQC"}, "B2": {"name": "BMP-1[catCUB1CUB2] (domain or fragment)", "chain": "AATSRPERVWPDGVIPFVIGGNFTGSQRAVFRQAMRHWEKHTCVTFLERTDEDSYIVFTYRPCGCCSYVGRRGGGPQAISIGKNCDKFGIVVHELGHVVGFWHEHTRPDRDRHVSIVRENIQPGQEYNFLKMEPQEVESLGETYDFDSIMHYARNTFSRGIFLDTIVPKYEVNGVKPPIGQRTRLSKGDIAQARKLYKCPACGETLQDSTGNFSSPEYPNGYSAHMHCVWRISVTPGEKIILNFTSLDLYRSRLCWYDYVEVRDGFWRKAPLRGRFCGSKLPEPIVSTDSRLWVEFRSSSNWVGKGFFAVYEAICGGDVKKDYGHIQSPNYPDDYRPSKVCIWRIQVSEGFHVGLTFQSFEIERHDSCAYDYLEVRDGHSESSTLIGRYCGYEKPDDIKSTSSRLWLKFVSDGSINKAGFAVNFFK"}}, "key": {"[1]": {"target": "T1, bone morphogenetic protein-1 (human, UniProt P13497-2 121-730)", "T1 chain": "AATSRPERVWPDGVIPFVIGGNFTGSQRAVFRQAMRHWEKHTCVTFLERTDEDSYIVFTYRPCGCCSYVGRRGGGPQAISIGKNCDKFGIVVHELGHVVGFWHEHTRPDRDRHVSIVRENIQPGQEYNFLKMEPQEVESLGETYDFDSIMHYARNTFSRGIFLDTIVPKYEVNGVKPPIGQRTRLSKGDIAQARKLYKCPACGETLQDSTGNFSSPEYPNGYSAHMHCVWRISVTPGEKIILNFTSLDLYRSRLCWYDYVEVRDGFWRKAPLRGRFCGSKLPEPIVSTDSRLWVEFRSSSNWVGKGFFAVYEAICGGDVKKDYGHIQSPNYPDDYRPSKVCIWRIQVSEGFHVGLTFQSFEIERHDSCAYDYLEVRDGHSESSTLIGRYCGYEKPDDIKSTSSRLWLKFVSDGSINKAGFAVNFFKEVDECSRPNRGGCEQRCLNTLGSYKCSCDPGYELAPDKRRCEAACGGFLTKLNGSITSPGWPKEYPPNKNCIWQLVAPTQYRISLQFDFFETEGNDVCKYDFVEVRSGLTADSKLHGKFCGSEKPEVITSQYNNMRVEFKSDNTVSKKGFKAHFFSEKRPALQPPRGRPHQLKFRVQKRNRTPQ", "assay": "SPR; heterogeneous ligand model, second site KD2 (Rmax2 86%)"}, "[2]": {"target": "T1, bone morphogenetic protein-1", "assay": "SPR; steady-state fit"}, "[3]": {"target": "T1, bone morphogenetic protein-1", "assay": "SPR; heterogeneous ligand model, kd1"}, "[4]": {"target": "T1, bone morphogenetic protein-1", "assay": "SPR; heterogeneous ligand model, KD1 (Rmax1 14%)"}, "[5]": {"target": "T1, bone morphogenetic protein-1", "assay": "SPR; heterogeneous ligand model, second site kd2"}, "[6]": {"target": "T2, procollagen C-proteinase enhancer-2 with N-terminal 6His-tag (human, UniProt Q9UKZ9 24-415)", "T2 chain": "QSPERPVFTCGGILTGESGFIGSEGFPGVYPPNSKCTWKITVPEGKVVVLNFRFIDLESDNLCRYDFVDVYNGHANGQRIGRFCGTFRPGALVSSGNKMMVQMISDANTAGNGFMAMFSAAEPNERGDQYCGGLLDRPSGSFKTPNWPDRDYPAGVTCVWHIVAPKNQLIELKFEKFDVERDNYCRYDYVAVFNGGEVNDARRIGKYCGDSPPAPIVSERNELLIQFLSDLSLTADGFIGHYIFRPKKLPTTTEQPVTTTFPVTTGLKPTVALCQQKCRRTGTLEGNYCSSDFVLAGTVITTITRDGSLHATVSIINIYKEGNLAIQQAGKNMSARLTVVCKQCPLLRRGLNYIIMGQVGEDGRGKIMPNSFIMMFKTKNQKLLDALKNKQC", "assay": "SPR; heterogeneous ligand model, second site KD2 (Rmax2 58%)"}, "[7]": {"target": "T2, procollagen C-proteinase enhancer-2 …", "assay": "SPR; steady-state fit"}, "[8]": {"target": "T2, procollagen C-proteinase enhancer-2 …", "assay": "SPR; heterogeneous ligand model, KD1 (Rmax1 42%)"}, "[9]": {"target": "T2, procollagen C-proteinase enhancer-2 …", "assay": "SPR; heterogeneous ligand model, kd1"}, "[10]": {"target": "T2, procollagen C-proteinase enhancer-2 …", "assay": "SPR; heterogeneous ligand model, second site kd2"}}, "data": [{"binder": "B1", "values": [{"measurement": "Kd", "setting": "[1]", "result": 26.6, "unit": "nM"}, {"measurement": "Kd", "setting": "[2]", "result": 52, "unit": "nM"}, {"measurement": "koff", "setting": "[3]", "result": 0.005, "unit": "s⁻¹"}, {"measurement": "Kd", "setting": "[4]", "result": 6.29, "unit": "nM"}, {"measurement": "koff", "setting": "[5]", "result": 0.198, "unit": "s⁻¹"}]}, {"binder": "B2", "values": [{"measurement": "Kd", "setting": "[6]", "result": 66, "unit": "nM"}, {"measurement": "Kd", "setting": "[7]", "result": 24, "unit": "nM"}, {"measurement": "Kd", "setting": "[8]", "result": 1.84, "unit": "nM"}, {"measurement": "koff", "setting": "[9]", "result": 0.0024, "unit": "s⁻¹"}, {"measurement": "koff", "setting": "[10]", "result": 0.03, "unit": "s⁻¹"}]}]}
